{"source": "patent US20240199740A1", "about": "(Ablynx, published 2024)", "binders": {"B1": {"name": "A0110056A10 (VHH)", "VHH": "EVQLVKSGGGLVQAGGSLRLSCAASGITSKINDMGWYRQTPGNYREWVASITATGTTNYRDSVKGRFTISRDNAKSTVYLQMNSLKPEDTTVYYCNTFPPISNFWGQGTLVTVSS", "notes": "Monovalent anti-CD123 Nanobody; also called A0110PMP056A10; A0110056A10-Alexa647; not shown: C-terminal triple Flag, His6 tag"}, "B2": {"name": "A0110055F03 (VHH)", "VHH": "EVQLVESGGGLVQAGGPLRLSCAASGRTFSSYVMGWFRQAPGKEREFVAAIYWSNGKTQYTDSVKGRFTISGDNAKNTVYLQMNSLNPEDTAVYYCVADKDETGFRTLPIAYDYWGQGTQVTVSS", "notes": "Monovalent anti-CD123 Nanobody; also called A0110PMP055F03; A011005F03; not shown: C-terminal triple Flag, His6 tag"}}, "key": {"[1]": {"molecular_target": "T1, human CD123 expressed on cells (human, UniProt P26951 19-378)", "T1 construct": "the cell line is named under assay; also called huCD123; IL-3Rα", "assay": "flow cytometry, KG1a cells"}, "[2]": {"molecular_target": "T1, human CD123 expressed on cells", "assay": "flow cytometry, MOLM-13 cells"}, "[3]": {"molecular_target": "T2, recombinant human CD123 protein (R&D Systems, 301-R3/CF) (human, UniProt P26951 19-305)", "T2 construct": "Bought recombinant His-tagged extracellular domain of human CD123; also called recombinant CD123; in house biotinylated-CD123 recombinant protein; not shown: His tag of the bought protein", "T2 sequence": "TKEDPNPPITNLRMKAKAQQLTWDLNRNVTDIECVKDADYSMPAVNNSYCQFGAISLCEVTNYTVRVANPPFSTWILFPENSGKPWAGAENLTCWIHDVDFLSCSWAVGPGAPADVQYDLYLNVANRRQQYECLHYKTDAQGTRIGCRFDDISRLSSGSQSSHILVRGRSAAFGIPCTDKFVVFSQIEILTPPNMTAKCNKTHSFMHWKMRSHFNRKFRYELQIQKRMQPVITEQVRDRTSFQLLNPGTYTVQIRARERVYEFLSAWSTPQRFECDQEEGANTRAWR", "assay": "SPR (ProteOn XPR36), CD123 immobilized"}, "[4]": {"molecular_target": "T1, human CD123 expressed on cells", "assay": "flow cytometry, Alexa647-labelled Nanobody, MOLM-13 cells"}, "[5]": {"molecular_target": "T1, human CD123 expressed on cells", "assay": "flow cytometry, Alexa647-labelled Nanobody, MOLM-13 cells", "remark": "listed apart in the source"}, "[6]": {"molecular_target": "T1, human CD123 expressed on cells", "assay": "flow cytometry competition, MOLM-13 cells, competitor APC-labelled antibody 7G3"}, "[7]": {"molecular_target": "T1, human CD123 expressed on cells", "assay": "flow cytometry, Alexa647-labelled Nanobody, CHO Flp-In huCD123 transfected cells"}, "[8]": {"molecular_target": "T3, cynomolgus CD123 expressed on HEK Flp-In cells (cynomolgus)", "T3 construct": "EHH61867.1; also called cyCD123; cyno CD123", "T3 chain": "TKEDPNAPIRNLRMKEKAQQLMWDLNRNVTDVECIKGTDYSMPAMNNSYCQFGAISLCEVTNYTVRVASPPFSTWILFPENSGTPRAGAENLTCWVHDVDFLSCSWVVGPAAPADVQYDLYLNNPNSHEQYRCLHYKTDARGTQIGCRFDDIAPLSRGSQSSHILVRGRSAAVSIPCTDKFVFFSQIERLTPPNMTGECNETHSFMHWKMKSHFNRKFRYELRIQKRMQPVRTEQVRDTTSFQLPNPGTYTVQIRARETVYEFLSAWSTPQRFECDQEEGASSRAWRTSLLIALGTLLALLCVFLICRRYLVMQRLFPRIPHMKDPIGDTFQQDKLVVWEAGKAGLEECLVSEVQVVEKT", "assay": "flow cytometry, Alexa647-labelled Nanobody, HEK Flp-In cyCD123 transfected cells"}, "[9]": {"molecular_target": "T1, human CD123 expressed on cells", "assay": "flow cytometry, Alexa647-labelled Nanobody, CHO Flp-In human CD123 cells"}, "[10]": {"molecular_target": "T1, human CD123 expressed on cells", "assay": "flow cytometry, Alexa647-labelled Nanobody, CHO Flp-In human CD123 cells", "remark": "listed apart in the source"}, "[11]": {"molecular_target": "T1, human CD123 expressed on cells", "assay": "flow cytometry competition, MOLM-13 cells, competitor A0110056A10-Alexa647 (0.7 nM)"}, "[12]": {"molecular_target": "T1, human CD123 expressed on cells", "assay": "flow cytometry competition, MOLM-13 cells, competitor A0110056A10-Alexa647 (0.4 nM)"}, "[13]": {"molecular_target": "T3, cynomolgus CD123 expressed on HEK …", "assay": "flow cytometry, Alexa647-labelled Nanobody, HEK Flp-In cynomolgus CD123 cells"}, "[14]": {"molecular_target": "T2, recombinant human CD123 protein (R&D …)", "assay": "competition ELISA, coated antibody 7G3 as competitor, 4 nM biotinylated recombinant CD123"}, "[15]": {"molecular_target": "T1, human CD123 expressed on cells", "assay": "flow cytometry competition, CHO Flp-In human CD123 cells, competitor APC-labelled antibody 7G3"}, "[16]": {"molecular_target": "T1, human CD123 expressed on cells", "assay": "flow cytometry competition, CHO Flp-In huCD123 cells, competitor A0110056A10-Alexa647 (0.9 nM)"}, "[17]": {"molecular_target": "T3, cynomolgus CD123 expressed on HEK …", "assay": "flow cytometry competition, HEK Flp-In cyCD123 cells, competitor A0110056A10-Alexa647 (0.9 nM)"}, "[18]": {"molecular_target": "T1, human CD123 expressed on cells", "assay": "flow cytometry competition, CHO Flp-In human CD123 cells, competitor A0110056A10-Alexa647 (0.5 nM)"}, "[19]": {"molecular_target": "T1, human CD123 expressed on cells", "assay": "flow cytometry, CHO Flp-In huCD123 transfected cells"}, "[20]": {"molecular_target": "T3, cynomolgus CD123 expressed on HEK …", "assay": "flow cytometry, HEK Flp-In cyCD123 transfected cells"}}}
{"binder": "B1", "values": [{"measurement": "EC50", "setting": "[1]", "result": 0.5, "unit": "nM"}, {"measurement": "EC50", "setting": "[2]", "result": 0.63, "unit": "nM"}, {"measurement": "Kd", "setting": "[3]", "result": 1.5, "unit": "nM"}, {"measurement": "koff", "setting": "[3]", "result": 0.00079, "unit": "s⁻¹"}, {"measurement": "kon", "setting": "[3]", "result": 530000, "unit": "M⁻¹ s⁻¹"}, {"measurement": "EC50 (read off the curve)", "setting": "[4]", "result": "~0.7", "unit": "nM"}, {"measurement": "EC50 (read off the curve)", "setting": "[5]", "result": "~0.5", "unit": "nM"}, {"measurement": "IC50", "setting": "[6]", "result": 1.1, "unit": "nM"}, {"measurement": "EC50", "setting": "[7]", "result": 0.974, "unit": "nM"}, {"measurement": "EC50", "setting": "[8]", "result": 2.48, "unit": "nM"}, {"measurement": "EC50 (read off the curve)", "setting": "[9]", "result": "~3", "unit": "nM"}, {"measurement": "EC50 (read off the curve)", "setting": "[10]", "result": "~1", "unit": "nM"}, {"measurement": "IC50", "setting": "[11]", "result": 1.4, "unit": "nM"}, {"measurement": "IC50", "setting": "[12]", "result": 1.1, "unit": "nM"}, {"measurement": "EC50 (read off the curve)", "setting": "[13]", "result": "~3", "unit": "nM"}, {"measurement": "IC50", "setting": "[14]", "result": 3.1, "unit": "nM"}, {"measurement": "IC50", "setting": "[15]", "result": 6.5, "unit": "nM"}, {"measurement": "IC50", "setting": "[16]", "result": 1.9, "unit": "nM"}, {"measurement": "IC50", "setting": "[17]", "result": 7, "unit": "nM"}, {"measurement": "IC50", "setting": "[18]", "result": 6.7, "unit": "nM"}]}
{"binder": "B2", "values": [{"measurement": "EC50", "setting": "[1]", "result": "> 100", "unit": "nM"}, {"measurement": "EC50", "setting": "[2]", "result": "> 100", "unit": "nM"}, {"measurement": "Kd", "setting": "[3]", "result": 160, "unit": "nM"}, {"measurement": "koff", "setting": "[3]", "result": 0.0039, "unit": "s⁻¹"}, {"measurement": "kon", "setting": "[3]", "result": 25000, "unit": "M⁻¹ s⁻¹"}, {"measurement": "EC50", "setting": "[19]", "result": 5.94, "unit": "nM"}, {"measurement": "EC50", "setting": "[20]", "result": 2.53, "unit": "nM"}, {"measurement": "IC50", "setting": "[6]", "result": 480, "unit": "nM"}, {"measurement": "IC50", "setting": "[11]", "result": "> 100", "unit": "nM"}]}
